For 2 molecules, Kd results are on record in PMC546141.

Where a chain is given by its changes, count along the chain named. Numbers in names are those of the source.

The series has as its target T1, mPrrp-2xRBD (mouse, UniProt Q9JII5 1-201).
T1 sequence: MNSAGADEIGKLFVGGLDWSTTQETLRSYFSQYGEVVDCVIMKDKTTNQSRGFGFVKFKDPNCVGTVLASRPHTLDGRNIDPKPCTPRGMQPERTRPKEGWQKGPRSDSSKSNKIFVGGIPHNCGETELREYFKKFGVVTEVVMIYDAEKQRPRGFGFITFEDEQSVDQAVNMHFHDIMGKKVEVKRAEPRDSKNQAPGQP
The experiment in a line: EMSA.

B1: S-13 26-73 U52C (structured_RNA)
RNA: GGCAUAGCCAAAUAGUUUGUGGCCUUAGCUUAGUAUAGCUGCGGGCUAUGGGAUC
As to B1, the Kd (usually the concentration at which binding is half-saturated) was ~55 nM.

B2: S-13 26-73 U53C (structured_RNA)
RNA: B1 RNA with C29U, U30C
Consider B2, for which the Kd is ~75 nM.
